In patent publication US20040230039A1 (YEDA RESEARCH AND DEVELOPMENT, published 2004):

B1: MORT-1 (FADD), human, full-length (other, UniProt Q13158 1-208, looked up)
chain: MDPFLVLLHSVSSSLSSSELTELKFLCLGRVGKRKLERVQSGLDLFSMLLEQNDLEPGHTELLRELLASLRRHDLLRRVDDFEAGAAAGAAPGEEDLCAAFNVICDNVGKDWRRLARQLKVSDTKIDSIEDRYPRNLTERVRESLRIWKNTEKENATVAHLVGALRSCQMNLVADLVQEVQQARDLQNRSGAMSPMSWNSDASTSEAS
notes: Gal4 hybrid in yeast; also expressed in mammalian cells; also called HF1
B3: human p55-IC (intracellular domain of human p55 TNF receptor, residues 206-426) (receptor, UniProt P19438 235-455, looked up)
chain: RYQRWKSKLYSIVCGKSTPEKEGELEGTTTKPLAPNPSFSPTPGFTPTLGFSPVPSSTFTSSSTYTPGDCPNFAAPRREVAPPYQGADPILATALASDPIPNPLQKWEDSAHKPQSLDTDDPATLYAVVENVPPLRWKEFVRRLGLSDHEIDRLELQNGRCLREAQYSMLATWRRRTPRREATLELLGRVLRDMDLLGCLEDIEEALCGPAALPPAPSLLR
notes: range 206-426; Gal4 hybrid in yeast; Numbering as printed; may count on the mature receptor; also called 206-426 p55; intracellular domain of human p55-R (CD120a)
B9: MACHβ1 (ORF-B of MACH) (other, human, UniProt Q14790-5 1-235, looked up)
chain: MDFSRNLYDIGEQLDSEDLASLKFLSLDYIPQRKQEPIKDALMLFQRLQEKRMLEESNLSFLKELLFRINRLDLLITYLNTRKEEMERELQTPGRAQISAYRVMLYQISEEVSRSELRSFKFLLQEEISKCKLDDDMNLLDIFIEMEKRVILGEGKLDILKRVCAQINKSLLKIINDYEEFSKERSSSLEGSPDEFSNDFGQSLPNEKQTSGILSDHQQSQFCKSTGESAQTSQH
notes: Gal4 hybrid in yeast; also expressed in mammalian cells (34 kDa); also called MACH B; MACH ORF-B
B10: MACHα1 (C360S) (enzyme)
chain: MDFSRNLYDIGEQLDSEDLASLKFLSLDYIPQRKQEPIKDALMLFQRLQEKRMLEESNLSFLKELLFRINRLDLLITYLNTRKEEMERELQTPGRAQISAYRVMLYQISEEVSRSELRSFKFLLQEEISKCKLDDDMNLLDIFIEMEKRVILGEGKLDILKRVCAQINKSLLKIINDYEEFSKERSSSLEGSPDEFSNGEELCGVMTISDSPREQDSESQTLDKVYQMKSKPRGYCLIINNHNFAKAREKVPKLHSIRDRNGTHLDAGALTTTFEELHFEIKPHDDCTVEQIYEILKIYQLMDHSNMDCFICCILSHGDKGIIYGTDGQEAPIYELTSQFTGLKCPSLAGKPKVFFIQASQGDNYQKGIPVETDSEEQPYLEMDLSSPQTRYIPDEADFLLGMATVNNCVSYRNPAEGTWYIQSLCQSLRERCPRGDDILTILTEVNYEVSNKDDKKNMGKQMPQPTFTLRKKLVFPSD
notes: Gal4 hybrid in yeast; also called MACHα(C360S)

What was measured:
[1] = system: T1, Acetyl-Asp-Glu-Val-Asp-a-(4-Methyl-Coumaryl-7-Amide)
T1 sequence: DEVD

[2] = system: T2, Acetyl-Tyr-Val-Ala-Asp-AMC
T2 sequence: YVAD

[3] = target: B3; assay: yeast two-hybrid beta-galactosidase test
Procedure: (§1) The interaction of the proteins encoded by the Gal4 DNA binding domain and activation-domain constructs (pGBT9 and PGAD-GH) within transfected SFY526 yeasts was assessed by β-galactosidase expression filter assay. […] The intracellular domains of human p55 TNF receptor (p55-IC residues 206-426), human CD40 (CD40-IC, residues 216-277) and human p75 TNF receptor (p75-IC, residues 287-461) as well as lamin, cyclin D and “empty” Gal4 (pGBT9) vectors served as negative controls in the form of DNA-binding domain constructs. SNF-1 and SNF4 served as positive controls in the form of DNA-binding-domain (SNF1) and activation-domain (SNF4) constructs. “Empty” Gal4 vectors (pGAD-GH) also served as negative controls in the form of activation domain constructs. The symbols “++” and “+” used in the presentation of the results of the above analysis denote the development of strong color within 30 and 90 min of the assay, respectively; and “−” denotes no development of color within 24 h.

TRADD = target: T3, TRADD (human, UniProt Q15628 1-312, limits assumed); assay: yeast two-hybrid screen of a human B cell library with MORT-1 as bait
T3 construct: Gal4 hybrid in yeast
T3 sequence (looked up): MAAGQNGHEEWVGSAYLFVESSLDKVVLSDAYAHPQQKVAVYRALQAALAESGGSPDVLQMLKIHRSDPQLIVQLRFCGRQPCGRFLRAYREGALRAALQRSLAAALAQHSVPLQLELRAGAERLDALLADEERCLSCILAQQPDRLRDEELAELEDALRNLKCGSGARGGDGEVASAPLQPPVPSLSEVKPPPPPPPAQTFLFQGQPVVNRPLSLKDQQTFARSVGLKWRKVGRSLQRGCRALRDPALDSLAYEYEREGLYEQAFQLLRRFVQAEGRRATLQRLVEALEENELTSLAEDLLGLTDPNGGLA

[4] = target: T4, MORT-1 (FADD), human, full-length (human), Q13158; assay: yeast two-hybrid beta-galactosidase filter assay; activation-domain hybrid against DNA-binding-domain hybrid (row); +++ = strong color within 30 min; conditions: remark: other sources report otherwise
T4 chain: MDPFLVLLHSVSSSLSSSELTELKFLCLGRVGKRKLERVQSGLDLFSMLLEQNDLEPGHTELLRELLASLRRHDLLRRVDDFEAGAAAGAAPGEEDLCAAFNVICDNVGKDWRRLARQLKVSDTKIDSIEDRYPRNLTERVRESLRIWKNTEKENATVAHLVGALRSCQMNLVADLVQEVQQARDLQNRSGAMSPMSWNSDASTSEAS

[5] = target: B1; assay: yeast two-hybrid beta-galactosidase test
Procedure: as §1

MACHβ1 (ORF-B of MACH) = target: B9; assay: yeast two-hybrid beta-galactosidase filter assay
Procedure: (§2) Their interaction was assessed by a β-galactosidase expression filter assay as described in Boldin et al., (1995b). The results are presented in terms of the time required for the development of strong color. […] Except where otherwise indicated, all experimental procedures for the findings presented are as described above (see also Boldin et al., 1995).

MACHα1 [6] = target: T5, MACHα1 (human, UniProt Q14790 1-479); assay: yeast two-hybrid beta-galactosidase filter assay
T5 construct: also called CASP-8α1
Procedure: as §2

MACHα1 (C360S) [7] = target: B10; assay: yeast two-hybrid beta-galactosidase filter assay
Procedure: as §2

FLAG-MORT-1 = target: T6, FLAG-MORT-1 (UniProt Q13158 1-208); assay: in vitro binding of 35S-labeled FLAG-MORT-1 from HeLa extracts to GST fusion on glutathione beads, SDS-PAGE and autoradiography
T6 construct: Expressed and 35S-labeled in HeLa cells; yielded proteins of about 27, 28, 32 and 34 kD; also called MORT-1-FLAG fusion protein; not shown: FLAG octapeptide (Eastman Kodak), N-terminal
T6 sequence (looked up): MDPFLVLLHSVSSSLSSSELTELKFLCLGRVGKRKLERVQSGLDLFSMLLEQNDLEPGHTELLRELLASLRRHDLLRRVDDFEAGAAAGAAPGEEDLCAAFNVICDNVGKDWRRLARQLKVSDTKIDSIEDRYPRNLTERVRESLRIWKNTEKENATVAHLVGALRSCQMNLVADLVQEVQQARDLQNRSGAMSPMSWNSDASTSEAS
Procedure: Glutathione S-transferase (GST) fusions with the wild type or a mutated Fas-IC were produced and adsorbed to glutathione-agarose beads; see Boldin et al., 1995; Current Protocols in Molecular Biology, 1994; Frangioni and Neel, 1993). […] The extracts were prepared in a buffer containing 50 mM Tris-HCl, pH 7.5, 150 mM NaCl, 0.1% NP-40, 1 mM dithiotreitol, 1 mM EDTA, 1 mM phenylmethylsulfonyl fluoride, 20 μg/ml Aprotonin, 20 μg/ml Leupeptin, 10 mM sodium fluoride and 0.1 mM sodium vanadate (1 ml per 5×10⁵ cells).

MACHα1 [8] = target: T5, MACHα1; assay: yeast two-hybrid test
Description: (§3) Except where otherwise indicated, all experimental procedures for the findings presented are as described above (see also Boldin et al., 1995).

MACHα1 (C360S) [9] = target: B10; assay: yeast two-hybrid test
Description: as §3

[10] = target: the molecule itself; assay: yeast two-hybrid beta-galactosidase filter assay; activation-domain hybrid against DNA-binding-domain hybrid (row); + = strong color within 90 min
Procedure: The DNA-binding domain constructs were prepared in pGBT9 vectors and the activation domain constructs were prepared in pGAD-GM vectors. […] In the assay, the development of color was determined, where the greater the color development, the greater the interaction between the constructs encoded by the DNA-binding domain and activation domain.

yeast two-hybrid test = target: the molecule itself; assay: yeast two-hybrid test
Description: as §3

GST fusion of MACHα1 Ser217 till Asp374
cleavage of fluorogenic peptide substrate (AMC release) by bacterial lysates [1]: Nor did cleavage occur

GST fusion of MACHα1 Asp374 through the C-terminus
cleavage of fluorogenic peptide substrate (AMC release) by bacterial lysates [1]: Nor did cleavage occur

GST fusion of the CED3/ICE homology region of MACHα1 (Ser217 through the C-terminus)
cleavage of fluorogenic peptide substrate (AMC release) by bacterial lysates [1]: cleaved effectively the PARP sequence-derived fluorogenic substrate
cleavage of fluorogenic peptide substrate (AMC release) by bacterial lysates [2]: They had no measurable proteolytic activity, though, against the IL-1β-precursor sequence-derived fluorogenic substrate

GST-fused MACH CED3/ICE-homology region with Cys360 replaced by Ser
cleavage of fluorogenic peptide substrate (AMC release) by bacterial lysates [1]: No cleavage was observed

GST fusion of the full-length MACHα1
cleavage of fluorogenic peptide substrate (AMC release) by bacterial lysates [1]: did not cleave Ac-DEVD-AMC

B1
binding result [3]: no binding
binding result (TRADD): binds
time to development of strong color (beta-galactosidase filter assay, yeast two-hybrid) [4]: < 30 min

B2: MORT-1 fragment residues 130-245 (MORT-1 DD) (other, human, UniProt Q13158 82-197, looked up)
chain: FEAGAAAGAAPGEEDLCAAFNVICDNVGKDWRRLARQLKVSDTKIDSIEDRYPRNLTERVRESLRIWKNTEKENATVAHLVGALRSCQMNLVADLVQEVQQARDLQNRSGAMSPMS
notes: Gal4 hybrid in yeast; expressed in HeLa cells for the cytotoxicity test; also called MORT 'tail'
binding result [5]: no binding

B3
binding result (MACHβ1 (ORF-B of MACH)): no binding
binding result (MACHα1 [6]): no binding
binding result (MACHα1 (C360S) [7]): no binding

B4: GST-huFas-IC (receptor, human, UniProt P25445 191-335, looked up)
chain: KRKEVQKTCRKHRKENQGSHESPTLNPETVAINLSDVDLSKYITTIAGVMTLSQVKGFVRKNGVNEAKIDEIKNDNVQDTAEQKVQLLRNWHQLHGKKEAYDTLIKDLKKANLCTLAEKIQTIILKDITSDSENSNFRNEIQSLV
notes: domain: intracellular domain; Produced in E. coli, attached to glutathione beads; also called GST fusion with the human Fas-IC; GST-Fas-IC; not shown: glutathione S-transferase (GST) fusion partner
binding result (FLAG-MORT-1): binds

B5: mouse Fas-IC (receptor, UniProt P25446 187-327, looked up)
chain: RKYRKRKCWKRRQDDPESRTSSRETIPMNASNLSLSKYIPRIAEDMTIQEAKKFARENNIKEGKIDEIMHDSIQDTAEQKVQLLLCWYQSHGKSDAYQDLIKGLKKAECRRTLDKFQDMVQKDLGKSTPDTGNENEGQCLE
notes: domain: intracellular domain
binding result [5]: binds

B6: mouse Fas-IC I225N (receptor, UniProt P25446 187-327, looked up)
chain: RKYRKRKCWKRRQDDPESRTSSRETIPMNASNLSLSKYIPRIAEDMTIQEAKKFARENNNKEGKIDEIMHDSIQDTAEQKVQLLLCWYQSHGKSDAYQDLIKGLKKAECRRTLDKFQDMVQKDLGKSTPDTGNENEGQCLE
notes: domain: intracellular domain; The text says 'Ile to Leu' but labels the mutant I225N; Position as printed; may count on the mature receptor; also called lprcg mutation
binding result [5]: no binding

B7: mouse Fas-IC I225A (receptor, UniProt P25446 187-327, looked up)
chain: RKYRKRKCWKRRQDDPESRTSSRETIPMNASNLSLSKYIPRIAEDMTIQEAKKFARENNAKEGKIDEIMHDSIQDTAEQKVQLLLCWYQSHGKSDAYQDLIKGLKKAECRRTLDKFQDMVQKDLGKSTPDTGNENEGQCLE
notes: domain: intracellular domain; Position as printed; may count on the mature receptor
binding result [5]: no binding

B8: GST-mFas-IC (receptor, mouse, UniProt P25446 187-327, looked up)
chain: RKYRKRKCWKRRQDDPESRTSSRETIPMNASNLSLSKYIPRIAEDMTIQEAKKFARENNIKEGKIDEIMHDSIQDTAEQKVQLLLCWYQSHGKSDAYQDLIKGLKKAECRRTLDKFQDMVQKDLGKSTPDTGNENEGQCLE
notes: domain: intracellular domain; Produced in E. coli, attached to glutathione beads; also called GST fusion with the mouse Fas-IC; not shown: glutathione S-transferase (GST) fusion partner
binding result (FLAG-MORT-1): binds

B9
binding result (MACHα1 [8]): binds
binding result (MACHα1 (C360S) [9]): binds
binding result [10]: binds

B10
binding result (yeast two-hybrid test): binds
